Laboratory results: patent publication US20170312350A1 (IMMATICS BIOTECHNOLOGIES, published 2017)

Target: MHC/IGF2BP3-001 complex on IGF2BP3-001-loaded target cells (human)
Assay: cell-based or functional assay

B1: TCR R10P1A7 (TCR, V domains shown)
V domain 1: GEDVEQSLFLSVREGDSSVINCTYTDSSSTYLYWYKQEPGAGLQLLTYIFSNMDMKQDQRLTVLLNKKDKHLSLRIADTQTGDSAIYFCAESKETRLMFGDGTQLVVKP
V domain 2: GAVVSQHPSWVICKSGTSVKIECRSLDFQATTMFWYRQFPKQSLMLMATSNEGSKATYEQGVEKDKFLINHASLTLSTLTVTSAHPEDSSFYICSARAGGHEQFFGPGTRLTVLE
EC50 (target peptide titration, IFNγ release): ~1 nM
